Assay results: patent US20220064216A1 (ANBITION S R L, published 2022)
Square brackets hold non-standard residues; d marks the D form. Ends that are not written are not given here. * marks the point of attachment. Met(O2) = CS(=O)(=O)CC[C@H](N)C(=O)O; Cha = N[C@@H](CC1CCCCC1)C(=O)O; Bn = c1ccc(C*)cc1

T1: human recombinant receptor VEGFR-1, the form consisting of the seven extracellular domains of the receptor fused to the Fc domain of human IgG (R&D Systems, cat No. 321-FL) (human), P17948
T1 chain: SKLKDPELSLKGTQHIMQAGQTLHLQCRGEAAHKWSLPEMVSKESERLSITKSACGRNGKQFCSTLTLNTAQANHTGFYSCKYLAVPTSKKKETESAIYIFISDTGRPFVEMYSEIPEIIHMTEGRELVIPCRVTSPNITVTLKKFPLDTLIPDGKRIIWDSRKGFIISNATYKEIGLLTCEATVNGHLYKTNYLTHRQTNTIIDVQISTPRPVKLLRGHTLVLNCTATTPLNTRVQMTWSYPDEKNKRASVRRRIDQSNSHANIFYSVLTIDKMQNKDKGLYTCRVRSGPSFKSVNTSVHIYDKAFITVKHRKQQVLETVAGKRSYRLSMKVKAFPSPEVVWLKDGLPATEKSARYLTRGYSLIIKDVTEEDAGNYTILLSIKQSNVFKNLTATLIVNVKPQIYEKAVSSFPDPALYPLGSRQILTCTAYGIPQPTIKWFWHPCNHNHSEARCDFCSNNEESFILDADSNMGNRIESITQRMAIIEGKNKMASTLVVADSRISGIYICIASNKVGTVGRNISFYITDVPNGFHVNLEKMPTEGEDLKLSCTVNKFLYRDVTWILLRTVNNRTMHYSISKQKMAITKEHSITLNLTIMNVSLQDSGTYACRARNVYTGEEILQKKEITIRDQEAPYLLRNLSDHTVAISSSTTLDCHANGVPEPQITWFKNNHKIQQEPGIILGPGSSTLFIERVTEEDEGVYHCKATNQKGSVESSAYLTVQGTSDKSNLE

B1: iVR1, tetrameric peptide of formula (IIc): [H-(R-Glu)-(S-Cys(Bzl))-(S-Cha)]4-Lys2-Lys-Gly-NH2 (peptide)
peptide: H-[dE]-Cys(Bn)-[Cha]
chain 1: Lys
chain 2: Lys-Gly-NH2
modifications: also: branched tetramer: four arms on alpha and epsilon amines of two Lys, each bonded to an amine of the Lys of chain 3
B2: tetrameric peptide having formula (II) with Y2 = D-serine (peptide)
peptide: [dE]-Cys(Bn)-[Cha]
chain 1: Lys
chain 2: Lys-[dS]-NH2
modifications: also: branched tetramer: four arms on both amines of two Lys, each bonded to an amine of the Lys of chain 3
notes: Described only as a tetrameric peptide of formula (II) with Y2 different from D-cysteine
B3: tetrameric peptide having formula (II) with Y2 = L-cysteine (peptide)
peptide: [dE]-Cys(Bn)-[Cha]
chain 1: Lys
chain 2: Lys-Cys-NH2
modifications: also: branched tetramer: four arms on both amines of two Lys, each bonded to an amine of the Lys of chain 3
notes: as for B2
B4: tetrameric peptide having formula (II) with Y2 = L-methionine sulfone (peptide)
peptide: [dE]-Cys(Bn)-[Cha]
chain 1: Lys
chain 2: Lys-[Met(O2)]-NH2
modifications: also: branched tetramer: four arms on both amines of two Lys, each bonded to an amine of the Lys of chain 3
notes: as for B2
B5: iVR1-Cys, tetrameric peptide of formula (IIb): [H-(R-Glu)-(S-Cys(Bzl))-(S-Cha)]4-Lys2-Lys-(D-Cys)-NH2 (peptide)
peptide: H-[dE]-Cys(Bn)-[Cha]
chain 1: Lys
chain 2: Lys-[dC]-NH2
modifications: also: branched tetramer: four arms on alpha and epsilon amines of two Lys, each bonded to an amine of the Lys of chain 3

How the values were obtained:
[1] = molecular target: T1, human recombinant receptor VEGFR-1, the …; assay: competition ELISA, VEGFR-1-Fc coated, PlGF 5 ng/ml as competing ligand, peptide at 780 nM
[2] = molecular target: T1, human recombinant receptor VEGFR-1, the …; assay: competition ELISA, VEGFR-1-Fc coated, PlGF 5 ng/ml as competing ligand, peptide at 1560 nM
[3] = molecular target: T1, human recombinant receptor VEGFR-1, the …; assay: competition ELISA, VEGFR-1-Fc coated, PlGF 5 ng/ml as competing ligand, peptide at 3125 nM
[4] = molecular target: T1, human recombinant receptor VEGFR-1, the …; assay: competition ELISA, VEGFR-1-Fc coated, PlGF 5 ng/ml as competing ligand, peptide at 12500 nM
[5] = molecular target: T1, human recombinant receptor VEGFR-1, the …; assay: competition ELISA, VEGFR-1-Fc coated, VEGF-A 5 ng/ml as competing ligand, peptide at 6250 nM
[6] = molecular target: T1, human recombinant receptor VEGFR-1, the …; assay: competition ELISA, VEGFR-1-Fc coated, VEGF-A 5 ng/ml as competing ligand, peptide at 12500 nM
[7] = molecular target: T1, human recombinant receptor VEGFR-1, the …; assay: competition ELISA, VEGFR-1-Fc coated, PlGF 5 ng/ml as competing ligand, peptide at 50000 nM
[8] = molecular target: T1, human recombinant receptor VEGFR-1, the …; assay: competition ELISA, VEGFR-1-Fc coated, PlGF as competing ligand
[9] = molecular target: T1, human recombinant receptor VEGFR-1, the …; assay: competition ELISA, VEGFR-1-Fc coated, VEGF-A 5 ng/ml as competing ligand, peptide at 1560 nM
[10] = molecular target: T1, human recombinant receptor VEGFR-1, the …; assay: competition ELISA, VEGFR-1-Fc coated, VEGF-A 5 ng/ml as competing ligand, peptide at 25000 nM
[11] = molecular target: T1, human recombinant receptor VEGFR-1, the …; assay: competition ELISA, VEGFR-1-Fc coated, PlGF 5 ng/ml as competing ligand, peptide at 6250 nM
[12] = molecular target: T1, human recombinant receptor VEGFR-1, the …; assay: competition ELISA, VEGFR-1-Fc coated, PlGF 5 ng/ml as competing ligand, peptide at 25000 nM
[13] = molecular target: T1, human recombinant receptor VEGFR-1, the …; assay: competition ELISA, VEGFR-1-Fc coated, VEGF-A 5 ng/ml as competing ligand, peptide at 780 nM
[14] = molecular target: T1, human recombinant receptor VEGFR-1, the …; assay: competition ELISA, VEGFR-1-Fc coated, VEGF-A 5 ng/ml as competing ligand, peptide at 50000 nM
[15] = molecular target: T1, human recombinant receptor VEGFR-1, the …; assay: competition ELISA, VEGFR-1-Fc coated, VEGF-A 5 ng/ml as competing ligand, peptide at 3125 nM
[16] = molecular target: T1, human recombinant receptor VEGFR-1, the …; assay: competition ELISA, VEGFR-1-Fc coated, VEGF-A as competing ligand
[17] = molecular target: T2, human recombinant receptor VEGFR-1, the form consisting of the seven extracellular domains of the receptor … (human, UniProt P17948 27-758); assay: as above
T2 construct: Bought reagent; also called Flt-1; not shown: Fc domain of human IgG
Method: The human recombinant receptor VEGFR-1, in particular the form consisting of the seven extracellular domains of the receptor fused to the Fc domain of human IgG (R&D Systems, cat No. 321-FL), was made to adhere in the wells of 96-well microplates at a concentration of 0.5 μg/ml in PBS pH 7.5 (100 μl/well) for 16 hours at room temperature (RT).
The binding reaction was conducted for one hour at 37° C., followed by one hour at room temperature.

[18] = molecular target: T1, human recombinant receptor VEGFR-1, the …; assay: competition ELISA, VEGFR-1-Fc coated, PlGF or VEGF-A as competing ligand; reference iVR1

Binder	binding % (residual PlGF binding to VEGFR-1) [1]	binding % (residual PlGF binding to VEGFR-1) [2]	binding % (residual PlGF binding to VEGFR-1) [3]	binding % (residual PlGF binding to VEGFR-1) [4]	binding % (residual VEGF-A binding to VEGFR-1) [5]	binding % (residual VEGF-A binding to VEGFR-1) [6]	binding % (residual PlGF binding to VEGFR-1) [7]	IC50 [8]	binding % (residual VEGF-A binding to VEGFR-1) [9]	binding % (residual VEGF-A binding to VEGFR-1) [10]	binding % (residual PlGF binding to VEGFR-1) [11]	binding % (residual PlGF binding to VEGFR-1) [12]	binding % (residual VEGF-A binding to VEGFR-1) [13]	binding % (residual VEGF-A binding to VEGFR-1) [14]	binding % (residual VEGF-A binding to VEGFR-1) [15]	IC50 [16]	IC50 [17]	inhibitory capacity, fold against iVR1 [18]
B1	99.4%	101%	96.1%	44.6%	66%	37%	26.3%	10000 nM	96.2%	21.4%	68.5%	36%	98.4%	8.6%	93.9%	10000 nM	–	–
B2	–	–	–	–	–	–	–	–	–	–	–	–	–	–	–	–	2430 nM	–
B3	–	–	–	–	–	–	–	–	–	–	–	–	–	–	–	–	2030 nM	–
B4	–	–	–	–	–	–	–	–	–	–	–	–	–	–	–	–	4620 nM	–
B5	83.8%	35.5%	25.5%	12.6%	12.5%	9.81%	9.18%	< 1000 nM	43.7%	7.99%	14.1%	10.3%	92.3%	6.5%	21.7%	1000 nM	–	10 fold
